Measurements from article PMC6945034, “A Genetic Screen To Identify Genes Influencing the Secondary Redox Couple NADPH/NADP^+ in the Yeast Saccharomyces cerevisiae” (G3: Genes|Genomes|Genetics, 2019).

What was measured:
purified protein [1] = substrate: O=C(O)C(=O)CO; experiment: purified protein; format: biochemical, Saccharomyces cerevisiae; conditions: 0.25 mM NADPH, 50 mM potassium phosphate pH 7.4, 30 C, substrate 0-40 mM
purified protein [2] = substrate: O=CC(=O)O; experiment: purified protein; format: biochemical, Saccharomyces cerevisiae; conditions: 0.25 mM NADPH, 50 mM potassium phosphate pH 7.4, 30 C, substrate 0-40 mM

B1: Gor1p (Saccharomyces cerevisiae S288C) (protein)
chain: MSKKPIVLKLGKDAFGDQAWGELEKIADVITIPESTTREQFLREVKDPQNKLSQVQVITRTARSVKNTGRFDEELALALPSSVVAVCHTGAGYDQIDVEPFKKRHIQVANVPDLVSNATADTHVFLLLGALRNFGIGNRRLIEGNWPEAGPACGSPFGYDPEGKTVGILGLGRIGRCILERLKPFGFENFIYHNRHQLPSEEEHGCEYVGFEEFLKRSDIVSVNVPLNHNTHHLINAETIEKMKDGVVIVNTARGAVIDEQAMTDALRSGKIRSAGLDVFEYEPKISKELLSMSQVLGLPHMGTHSVETRKKMEELVVENAKNVILTGKVLTIVPELQNEDWPNESKPLV
notes: C-terminal 6xHis tag, tag cut not mentioned, expressed in E. coli BL21(DE3), Ni-NTA purified
Q: What does the source list for B1?
A: Km (purified protein [1]): 22.7 mM; Km (purified protein [2]): 8.4 mM
